The text below walks through data of article PMC1635300.

In the data set the target is Progesterone receptor isoform B (PRB) (Homo sapiens, UniProt P06401 1-933). Briefly: EMSA.
Progesterone receptor isoform B (PRB), sequence (P06401 whole entry, canonical isoform): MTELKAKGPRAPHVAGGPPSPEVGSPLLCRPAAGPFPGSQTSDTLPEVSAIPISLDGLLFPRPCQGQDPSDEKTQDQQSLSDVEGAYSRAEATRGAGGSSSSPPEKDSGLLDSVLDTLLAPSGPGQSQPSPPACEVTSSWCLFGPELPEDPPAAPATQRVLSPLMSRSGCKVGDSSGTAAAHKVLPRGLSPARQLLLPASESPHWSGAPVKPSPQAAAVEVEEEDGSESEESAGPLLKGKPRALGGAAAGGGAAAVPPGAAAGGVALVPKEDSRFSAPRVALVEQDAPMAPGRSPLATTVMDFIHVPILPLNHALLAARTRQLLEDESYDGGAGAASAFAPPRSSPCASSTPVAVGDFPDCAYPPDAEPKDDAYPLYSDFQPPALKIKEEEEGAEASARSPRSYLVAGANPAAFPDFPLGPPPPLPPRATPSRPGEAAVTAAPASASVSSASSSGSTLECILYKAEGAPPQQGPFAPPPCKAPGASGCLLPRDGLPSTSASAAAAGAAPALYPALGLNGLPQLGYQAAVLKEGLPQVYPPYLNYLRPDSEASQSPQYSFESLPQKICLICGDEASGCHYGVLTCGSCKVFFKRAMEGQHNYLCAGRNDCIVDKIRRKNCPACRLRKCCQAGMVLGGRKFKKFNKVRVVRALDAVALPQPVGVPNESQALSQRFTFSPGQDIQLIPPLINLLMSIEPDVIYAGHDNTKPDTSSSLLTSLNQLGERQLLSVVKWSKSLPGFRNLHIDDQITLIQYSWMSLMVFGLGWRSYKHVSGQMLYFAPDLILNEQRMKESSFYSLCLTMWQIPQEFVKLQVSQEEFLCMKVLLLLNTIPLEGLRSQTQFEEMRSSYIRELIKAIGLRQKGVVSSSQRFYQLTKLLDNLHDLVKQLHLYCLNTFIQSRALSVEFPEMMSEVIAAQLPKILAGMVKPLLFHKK

B1: PRE (dsDNA)
DNA 1: GTTACAAACTGTTCT
DNA 2: AGAACAGTTTGTAAC
Turning to B1, the binding result is “binds”.
